According to patent publication US20060063149A1 (BIOKIT S A, published 2006):

Tests used:
[1] = target: T1, Tp17-HIS monomers (Treponema pallidum, UniProt P29722 23-156); experiment: size-exclusion chromatography of complexes formed in vitro
T1 construct: also called monomeric Tp17-His; not shown: HIS tag from the pET24a vector
T1 sequence: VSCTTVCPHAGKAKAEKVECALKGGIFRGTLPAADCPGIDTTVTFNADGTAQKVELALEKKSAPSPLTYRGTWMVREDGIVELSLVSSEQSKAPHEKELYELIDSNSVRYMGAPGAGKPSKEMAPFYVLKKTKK

[2] = target: T2, Tp17-HIS dimers (Treponema pallidum, UniProt P29722 23-156); experiment: as above
T2 construct: also called dimeric Tp17-His; not shown: HIS tag from the pET24a vector
T2 sequence: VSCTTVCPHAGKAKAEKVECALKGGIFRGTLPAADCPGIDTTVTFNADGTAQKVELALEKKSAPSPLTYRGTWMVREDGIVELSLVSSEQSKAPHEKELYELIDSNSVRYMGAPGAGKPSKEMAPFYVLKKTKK

[3] = target: T3, GST-Tp47 fusion protein (Treponema pallidum, UniProt P29723 20-434); experiment: Far Western blot, lysozyme on PVDF membrane
T3 construct: Control protein that shares the GST moiety with GST-Tp17; also called control GST-Tp47 antigen; not shown: GST moiety
T3 sequence: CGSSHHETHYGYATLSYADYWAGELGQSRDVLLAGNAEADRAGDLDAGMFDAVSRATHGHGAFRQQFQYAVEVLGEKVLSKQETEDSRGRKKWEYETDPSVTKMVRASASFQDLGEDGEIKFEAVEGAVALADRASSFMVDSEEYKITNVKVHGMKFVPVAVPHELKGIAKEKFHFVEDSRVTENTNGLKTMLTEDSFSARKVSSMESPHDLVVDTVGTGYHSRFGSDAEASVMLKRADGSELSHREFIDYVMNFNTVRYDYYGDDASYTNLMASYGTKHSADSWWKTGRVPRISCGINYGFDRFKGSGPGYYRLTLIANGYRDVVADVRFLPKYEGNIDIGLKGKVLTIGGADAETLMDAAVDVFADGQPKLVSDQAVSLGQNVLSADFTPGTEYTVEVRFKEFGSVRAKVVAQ

Row | Binder | binding result [1] | binding result [2] | binding result [3]
1 | recombinant human lysozyme (Ventria Bioscience) (enzyme, Bought product (159-53LZ-90P); also called huLYS; LyzR) KVFERCELARTLKRLGMDGYRGISLANWMCLAKWESGYNTRATNYNAGDRSTDYGIFQINSRYWCNDGKTPGAVNACHLSCSALLQDNIADAVACAKRVVRDPQGIRAWVAWRNRCQNRDVRQYVQGCGV | binds | binds | –
2 | human breast milk lysozyme (enzyme, also called human lysozyme; huLYS) KVFERCELARTLKRLGMDGYRGISLANWMCLAKWESGYNTRATNYNAGDRSTDYGIFQINSRYWCNDGKTPGAVNACHLSCSALLQDNIADAVACAKRVVRDPQGIRAWVAWRNRCQNRDVRQYVQGCGV | – | – | no binding
